Assays:
[1] = target: T1, His-ArgP (Escherichia coli (ASKA collection)) (UniProt P0A8S1); assay: EMSA; details: Radioactive EMSA: 20 min at 30 C, 6% polyacrylamide gel, buffer by reference (Müller et al.); ArgP agarose EMSA: 10 mM Tris-HCl pH 8.5, 10 mM MgCl2, 100 mM …
T1 sequence: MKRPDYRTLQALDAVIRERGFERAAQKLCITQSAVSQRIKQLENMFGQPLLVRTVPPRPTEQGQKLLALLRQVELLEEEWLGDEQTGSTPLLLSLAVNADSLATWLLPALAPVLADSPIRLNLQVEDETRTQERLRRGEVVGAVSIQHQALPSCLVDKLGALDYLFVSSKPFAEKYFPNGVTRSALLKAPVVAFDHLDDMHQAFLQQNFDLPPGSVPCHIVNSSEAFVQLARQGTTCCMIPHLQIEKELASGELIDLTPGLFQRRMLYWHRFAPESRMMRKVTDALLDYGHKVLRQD

[2] = target: T2, LsrB-His (Agrobacterium tumefaciens) (UniProt A9CI74); assay: EMSA; details: Radioactive EMSA: 20 min at 30 C, 6% polyacrylamide gel, buffer by reference (Müller et al.); ArgP agarose EMSA: 10 mM Tris-HCl pH 8.5, 10 mM MgCl2, 100 mM …
T2 sequence: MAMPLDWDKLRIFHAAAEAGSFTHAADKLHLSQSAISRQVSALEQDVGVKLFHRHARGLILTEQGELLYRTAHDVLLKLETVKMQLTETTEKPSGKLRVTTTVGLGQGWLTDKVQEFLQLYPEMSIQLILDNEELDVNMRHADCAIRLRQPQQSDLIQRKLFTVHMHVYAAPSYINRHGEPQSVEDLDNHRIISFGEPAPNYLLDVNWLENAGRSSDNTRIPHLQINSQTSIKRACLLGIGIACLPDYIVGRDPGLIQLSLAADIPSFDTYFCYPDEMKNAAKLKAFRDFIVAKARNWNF

[3] = target: the molecule itself; assay: cryo-EM structure; single-particle cryo-EM of purified LsrB (1.2 mg/ml), without DNA; DNA-binding domain excluded from the analysis; AlphaFold 3 model of the SBD dimer rigid-body fitted into the 3.9 Å map

CGCTTCTGTGGTTTTAGTTTCGGAAACCATACAAAAATGCTATCCATCTTAAAAATGAGGCGCGATTGTAGCAGACGATTGGCAATCCTTCCGGCAGAAATACACGGTTATAAGACACCTTCATGATCGCCCAGGGATTATAAGTAAAGCAGCCAATCTCTTTTCTGGCGAATGCATGCTGAAGGCGCTGCGTCACGAAATCGACACAGCACCAGCATGTTCTTGTACAGCAACTTAACGCGGCACATTTGCGGGATCGCAATAGTCCAGAAAGCG (double strand) [lysP promoter 276 bp]
binding [1]: binds

GCGGCTAAACGTCTTTTCGCTGGGGATGGCGGAGAAGCCGACAATCCACCTTAGGTTTTGGAGAACACGAAAGATGAAATTTAATCGCAGACATATCGCACTGGCCGCTTTGGTCTCGACGGGCCTGGTCACGCAGGCTTCTGCCGCTGATGATG (double strand) [ampC promoter 155 bp]
binding [2]: no binding

B1: LsrB (LysR-type symbiosis regulator B) of Agrobacterium tumefaciens (natural protein)
chain: T2 sequence
notes: LsrB, LysR-type transcriptional regulator of Agrobacterium tumefaciens (atu2186); also called Atu2186; LsrB^His; source: E. coli BL21 (DE3), purified (His-tagged or Strep-tagged; Strep-Tactin resin for the Strep-tagged form)
stoichiometry N [3]: 2
